According to patent publication US20260242478A1 (published 2026):
Where no end group is shown, it is not given here.

B1: Phage-3420 (peptide)
peptide: NDVKCIPEWMCVGF
notes: Peptide-180 library clone, tested as clonal phage supernatant; not shown: fused to the pIII filament protein of the bacteriophage
B2: Phage-3427 (peptide)
peptide: SSMLCIPTWMCGGF
notes: as for B1
B3: Phage-3430 (peptide)
peptide: VEKMCKPVWMCNGF
notes: as for B1
B4: Phage-3432 (peptide)
peptide: SFLRCEPMWMCLGF
notes: as for B1
B5: Phage-3421 (peptide)
peptide: TDPLCIPEWMCQGM
notes: as for B1
B6: Phage-3426 (peptide)
peptide: MTPRCIPSWMCFGM
notes: as for B1
B7: Phage-3425 (peptide)
peptide: LEIMCRPEWMCSGF
notes: as for B1
B8: Phage-3422 (peptide)
peptide: LSTLCIPQWMCTGL
notes: as for B1
B9: Phage-3429 (peptide)
peptide: SLPICKPEWMCVGL
notes: as for B1
B10: Phage-3423 (peptide)
peptide: YFQMCAPRWMCEGF
modifications: cysteine pairing not given here; also: fused to pIII of bacteriophage
notes: as for B1
B11: Phage-3431 (peptide)
peptide: EDILCKPVWMCIGF
notes: as for B1
B12: Phage-3433 (peptide)
peptide: IEPHCVPAWMCTGF
notes: as for B1
B13: Phage-3424 (peptide)
peptide: IDQICKPAWMCSGF
notes: as for B1
B14: Phage-3428 (peptide)
peptide: TSLRCVPEWMCSGF
notes: as for B1

Columns and labels:
PSMA Fab [1] = biological target: T1, PSMA Fab (biotinylated (site not stated)); assay: clonal phage ELISA on captured PSMA Fab pre-incubated with PSMA antigen as competitor, anti-M13-HRP detection;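 further: wells blocked with buffer plus PSMA antigen before phage addition, with blocking buffer alone as the no-competitor control, bound phage detected after washing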
T1 construct: Biotinylated PSMA Fab captured on neutravidin coated plates in the phage ELISA; also called anti-PSMA Fab; 006 PSMA Fab

PSMA Fab [2] = biological target: T1, PSMA Fab; assay: clonal phage ELISA on biotinylated PSMA Fab captured on neutravidin plates, anti-M13-HRP detection;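 further: crude clonal phage supernatants added to wells preincubated with PSMA antigen or with blocking buffer only (no wash between), briefly incubated, then washed before detecting bound phage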
Procedure: (§1) Clonal phage were harvested as crude supernatants and screened via standard ELISAs. […] Prior to the addition of clonal phage. wells were incubated with blocking buffer and PSMA antigen or blocking buffer alone. Without washing or aspirating, clonal phage supernatants were then added to the wells and incubated for a short time. Wells were then washed followed by detection of bound phage using a horse radish conjugated anti-M13 antibody.

PSMA Fab (006 PSMA Fab) [3] = biological target: T2, PSMA Fab (006 PSMA Fab) (biotinylated (site not stated)); assay: clonal phage ELISA on captured anti-PSMA Fab pre-incubated with PSMA antigen (competitor: PSMA)
T2 construct: That the same Fab was used in the panning ELISA is inferred; also called Anti-PSMA Fab; anti-PSMA Fab

PSMA Fab (006 PSMA Fab) [4] = biological target: T2, PSMA Fab (006 PSMA Fab); assay: clonal phage ELISA on biotinylated anti-PSMA Fab captured on neutravidin, anti-M13-HRP detection
Procedure: as §1

PSMA Fab [5] = biological target: T3, PSMA Fab; assay: clonal phage ELISA; biotinylated PSMA Fab on neutravidin plate, pre-incubated with PSMA antigen as competitor; anti-M13 HRP detection
T3 construct: also called Anti-PSMA Fab; 006 PSMA Fab
Procedure: as §1

PSMA Fab [6] = biological target: T3, PSMA Fab; assay: clonal phage ELISA; biotinylated PSMA Fab on neutravidin plate, blocking buffer alone; anti-M13 HRP detection;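 further: crude clonal phage supernatants added without washing to wells pretreated with blocking buffer with or without PSMA antigen, short incubation, then washed before detecting bound phage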
Procedure: as §1

Binder | Phage binding ELISA signal, Anti-PSMA Fab with PSMA antigen (PSMA Fab [1]) | Phage binding ELISA signal, Anti-PSMA Fab (PSMA Fab [2]) | phage binding ELISA signal in the presence of PSMA (PSMA Fab (006 PSMA Fab) [3]) | phage binding ELISA signal (PSMA Fab (006 PSMA Fab) [4]) | Phage binding ELISA signal, Anti-PSMA Fab with PSMA antigen (PSMA Fab [5]) | Phage binding ELISA signal, Anti-PSMA Fab (PSMA Fab [6])
QGTLCVPSWMCSGF [Phage-3390] | 0.0523 | 1.8 |  |  |  | 
B1 |  |  | 0.0849 | 1.78 |  | 
LEVHCRPSWMCVGF [Phage-3384] | 0.062 | 1.81 |  |  |  | 
VERACRPVWMCQGF [Phage-3417] |  |  |  |  | 0.0907 | 1.78
AEVRCVPQWMCFGL [Phage-3380] | 0.0952 | 1.81 |  |  |  | 
B2 |  |  | 0.0536 | 1.77 |  | 
B3 |  |  | 0.115 | 1.77 |  | 
QVPMCKPMWMCAGF (cysteine pairing not given here; also: fused to pIII of bacteriophage) [Phage-3379] | 0.0921 | 1.81 |  |  |  | 
IEAVCKPSWMCAGF (cysteine pairing not given here; also: fused to pIII of bacteriophage) [Phage-3391] | 0.0703 | 1.8 |  |  |  | 
B4 |  |  | 0.0816 | 1.77 |  | 
IMPTCVPQWMCNGF [Phage-3418] |  |  |  |  | 0.093 | 1.78
B5 |  |  | 0.0726 | 1.78 |  | 
B6 |  |  | 0.086 | 1.77 |  | 
AQGVCIPQWMCDGF (cysteine pairing not given here; also: fused to pIII of bacteriophage) [Phage-3406] |  |  |  |  | 0.0715 | 1.79
SLAQCVPEWMCFGF [Phage-3411] |  |  |  |  | 0.113 | 1.79
VEPLCRPMWMCEGI [Phage-3410] |  |  |  |  | 0.122 | 1.79
B7 |  |  | 0.0888 | 1.77 |  | 
MLPYCVPQWMCMGF [Phage-3419] |  |  |  |  | 0.147 | 1.78
MQMMCKPDWMCEGF [Phage-3388] | 0.0755 | 1.8 |  |  |  | 
B8 |  |  | 0.0813 | 1.78 |  | 
SEILCRPAWMCTGF [Phage-3407] |  |  |  |  | 0.104 | 1.79

Binder | Phage binding ELISA signal, Anti-PSMA Fab with PSMA antigen (PSMA Fab [1]) | Phage binding ELISA signal, Anti-PSMA Fab (PSMA Fab [2]) | phage binding ELISA signal in the presence of PSMA (PSMA Fab (006 PSMA Fab) [3]) | phage binding ELISA signal (PSMA Fab (006 PSMA Fab) [4]) | Phage binding ELISA signal, Anti-PSMA Fab with PSMA antigen (PSMA Fab [5]) | Phage binding ELISA signal, Anti-PSMA Fab (PSMA Fab [6])
B9 |  |  | 0.0892 | 1.77 |  | 
GDHYCKPDWMCSGF [Phage-3408] |  |  |  |  | 0.071 | 1.79
B10 |  |  | 0.0849 | 1.78 |  | 
FTALCKPMWMCRGF [Phage-3386] | 0.0718 | 1.81 |  |  |  | 
VEPLCRPFWMCVGF [Phage-3382] | 0.127 | 1.81 |  |  |  | 
ILPQCVPSWMCEGF [Phage-3385] | 0.106 | 1.81 |  |  |  | 
B11 |  |  | 0.06 | 1.77 |  | 
ELVRCIPVWMCQGF [Phage-3412] |  |  |  |  | 0.368 | 1.79
IGAMCEPKWMCFGF (cysteine pairing not given here; also: fused to pIII of bacteriophage) [Phage-3389] | 0.118 | 1.8 |  |  |  | 
METWCVPTWMCTGF [Phage-3415] |  |  |  |  | 0.0748 | 1.79
DFVRCVPDWMCQGF [Phage-3414] |  |  |  |  | 0.0627 | 1.79
SVKVCKPAWMCAGF (cysteine pairing not given here; also: fused to pIII of bacteriophage) [Phage-3413] |  |  |  |  | 0.102 | 1.79
DVRLCRPSWMCSGF [Phage-3378] | 0.0682 | 1.81 |  |  |  | 
B12 |  |  | 0.0805 | 1.76 |  | 
B13 |  |  | 0.0628 | 1.78 |  | 
FSVRCVPEWMCAGF (cysteine pairing not given here; also: fused to pIII of bacteriophage) [Phage-3387] | 0.0701 | 1.8 |  |  |  | 
DTFMCRPSWMCNGF [Phage-3409] |  |  |  |  | 0.072 | 1.79
NGALCKPVWMCQGF [Phage-3383] | 0.0702 | 1.81 |  |  |  | 
DTWICKPEWMCMGF [Phage-3416] |  |  |  |  | 0.0802 | 1.78
EMRYCVPRWMCEGF [Phage-3381] | 0.095 | 1.81 |  |  |  | 
B14 |  |  | 0.0814 | 1.77 |  | 
